Assay [1] addresses T1, HCMV gH on virions of strain VR1814 (HCMV, UniProt P12824 24-743).
T1 sequence: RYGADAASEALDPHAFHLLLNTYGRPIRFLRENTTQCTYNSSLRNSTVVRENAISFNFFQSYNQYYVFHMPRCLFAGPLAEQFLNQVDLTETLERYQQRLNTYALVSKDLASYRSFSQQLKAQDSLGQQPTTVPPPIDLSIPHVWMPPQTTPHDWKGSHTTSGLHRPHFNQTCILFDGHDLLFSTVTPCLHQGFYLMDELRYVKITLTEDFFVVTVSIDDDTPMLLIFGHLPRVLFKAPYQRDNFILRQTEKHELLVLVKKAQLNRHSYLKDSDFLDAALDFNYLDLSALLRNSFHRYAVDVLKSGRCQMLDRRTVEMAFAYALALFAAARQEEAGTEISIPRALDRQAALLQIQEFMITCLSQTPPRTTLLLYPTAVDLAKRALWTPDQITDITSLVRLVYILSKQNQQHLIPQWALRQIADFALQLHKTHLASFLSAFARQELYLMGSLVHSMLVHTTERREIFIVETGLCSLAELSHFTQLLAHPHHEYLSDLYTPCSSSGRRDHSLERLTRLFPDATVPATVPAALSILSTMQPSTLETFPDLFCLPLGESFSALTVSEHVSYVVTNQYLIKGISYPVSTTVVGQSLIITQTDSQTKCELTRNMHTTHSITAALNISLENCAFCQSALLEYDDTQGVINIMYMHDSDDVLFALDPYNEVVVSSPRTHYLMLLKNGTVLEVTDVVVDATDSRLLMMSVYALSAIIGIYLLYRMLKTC
Kind of assay: cell-based or functional assay.

The target in assay [2] is T1, HCMV gH on virions of strain VR1814. Nature of the assay: cell-based or functional assay. The source holds these as a separate data set.
Assay [3] shares this target. Kind of assay: cell-based or functional assay. The source holds these as a separate data set.
The target in assay [4] is T2, soluble baculovirus-expressed gH/gL (HCMV, UniProt P12824 24-720; P16832 31-278).
T2 construct: also called gH/gL dimer produced in baculovirus; baculovirus expressed, secreted gH/gL
T2 sequence 1: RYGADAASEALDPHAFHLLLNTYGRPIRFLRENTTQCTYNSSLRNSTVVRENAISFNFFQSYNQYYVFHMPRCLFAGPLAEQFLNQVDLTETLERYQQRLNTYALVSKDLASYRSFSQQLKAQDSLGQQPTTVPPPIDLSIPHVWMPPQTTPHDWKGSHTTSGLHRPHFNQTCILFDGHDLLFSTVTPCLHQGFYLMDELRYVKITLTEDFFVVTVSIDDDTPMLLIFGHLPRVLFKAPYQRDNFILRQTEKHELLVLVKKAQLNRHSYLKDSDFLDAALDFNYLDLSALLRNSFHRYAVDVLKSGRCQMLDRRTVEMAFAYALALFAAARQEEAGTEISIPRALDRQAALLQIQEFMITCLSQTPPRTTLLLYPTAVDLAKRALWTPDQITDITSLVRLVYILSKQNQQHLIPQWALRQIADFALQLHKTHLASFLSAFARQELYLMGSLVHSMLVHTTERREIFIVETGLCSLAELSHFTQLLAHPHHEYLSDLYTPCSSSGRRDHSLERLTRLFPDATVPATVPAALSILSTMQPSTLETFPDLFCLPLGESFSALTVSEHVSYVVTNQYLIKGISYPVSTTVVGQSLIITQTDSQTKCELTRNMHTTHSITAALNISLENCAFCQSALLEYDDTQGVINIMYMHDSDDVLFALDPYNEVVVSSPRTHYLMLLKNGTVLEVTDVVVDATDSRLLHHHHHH
T2 sequence 2: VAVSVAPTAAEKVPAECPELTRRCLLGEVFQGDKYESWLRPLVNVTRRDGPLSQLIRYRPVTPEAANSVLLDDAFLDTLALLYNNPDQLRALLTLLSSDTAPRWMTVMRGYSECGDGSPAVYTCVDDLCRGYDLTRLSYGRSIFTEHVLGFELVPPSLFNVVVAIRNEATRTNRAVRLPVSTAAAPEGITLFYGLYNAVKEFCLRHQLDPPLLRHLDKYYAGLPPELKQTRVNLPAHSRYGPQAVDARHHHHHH
Nature of the assay: competition phage ELISA: phage-displayed Fab with serially diluted soluble gH/gL, free phage caught on coated gH/gL.

B1: MSL-109 (antibody, V domains shown)
VH: EEQVLESGGGLVKPGGSLRLSCAASGFTFSPYSVFWVRQAPGKGLEWVSSINSDSTYKYYADSVKGRFTISRDNAENSIFLQMNSLRAEDTAVYYCARDRSYYAFSSGSLSDYYYGLDVWGQGTLVTVSS
VL: DIVMTQSPLSLSVTPGEPASISCRSSQSLLHTNGYNYLDWYVQKPGQSPQLLIYLASNRASGVPDRFSGSGSGTDFTLKISRVETEDVGVYYCMQALQIPRTFGQGTKVEIK
Consider B1, for which, in assay [1], the “EC50, neutralisation of HCMV strain VR1814 on endothelial cells” value came out at 0.0764 µg/mL; the “EC50, neutralisation of HCMV strain VR1814 on epithelial cells” value came out at 0.164 µg/mL; the “EC50, neutralisation of HCMV strain VR1814 on fibroblasts” value amounted to 0.389 µg/mL. Besides, in assay [2], the “Epithelial EC50 (first pair of columns), neutralisation” value came to 0.3 µg/mL; the “Epithelial EC50 (second pair of columns), neutralisation” value stood at 0.48 µg/mL; the “Fibroblast EC50, neutralisation” value is 0.73 µg/mL; the “MDM EC50, neutralisation” value was 0.04 µg/mL.

B2: MSL-109 Fab fragment (WT) (Fab, V domains shown)
VH: EEQVLESGGGLVKPGGSLRLSCAASGFTFSPYSVFWVRQAPGKGLEWVSSINSDSTYKYYADSVKGRFTISRDNAENSIFLQMNSLRAEDTAVYYCARDRSYYAFSSGSLSDYYYGLDVWGQGTLVTVSS
VL: DIVMTQSPLSLSVTPGEPASISCRSSQSLLHTNGYNYLDWYVQKPGQSPQLLIYLASNRASGVPDRFSGSGSGTDFTLKISRVETEDVGVYYCMQALQIPRTFGQGTKVEIK
As to B2, in assay [3], the “EC50, inhibition of HCMV entry into ARPE-19 cells, Fab fragments from E. coli” value turned out to be 6.2 nM.

B3: HB2 Fab fragment, H2-D53Q/T55R (HB2) (Fab, name in Kabat numbering, V domains shown)
VH: EEQVLESGGGLVKPGGSLRLSCAASGFTFSPYSVFWVRQAPGKGLEWVSSINSQSRYKYYADSVKGRFTISRDNAENSIFLQMNSLRAEDTAVYYCARDRSYYAFSSGSLSDYYYGLDVWGQGTLVTVSS
VL: DIVMTQSPLSLSVTPGEPASISCRSSQSLLHTNGYNYLDWYVQKPGQSPQLLIYLASNRASGVPDRFSGSGSGTDFTLKISRVETEDVGVYYCMQALQIPRTFGQGTKVEIK
In general, IC50 refers to the point on the concentration scale where inhibition reaches its midpoint. A lower IC50 goes with higher potency. B3 displayed an IC50 in assay [4] of 0.01 nM.

B4: MSL-109 Fab variant H2-D53M (Fab, name in Kabat numbering, V domains shown)
VH: EEQVLESGGGLVKPGGSLRLSCAASGFTFSPYSVFWVRQAPGKGLEWVSSINSMSTYKYYADSVKGRFTISRDNAENSIFLQMNSLRAEDTAVYYCARDRSYYAFSSGSLSDYYYGLDVWGQGTLVTVSS
VL: DIVMTQSPLSLSVTPGEPASISCRSSQSLLHTNGYNYLDWYVQKPGQSPQLLIYLASNRASGVPDRFSGSGSGTDFTLKISRVETEDVGVYYCMQALQIPRTFGQGTKVEIK
B4: the IC50 in assay [4] was 0.05 nM. Against the preceding molecule, the IC50 is about 5-fold higher.

B5: MSL-109 Fab variant H2-D53N (Fab, name in Kabat numbering, V domains shown)
VH: EEQVLESGGGLVKPGGSLRLSCAASGFTFSPYSVFWVRQAPGKGLEWVSSINSNSTYKYYADSVKGRFTISRDNAENSIFLQMNSLRAEDTAVYYCARDRSYYAFSSGSLSDYYYGLDVWGQGTLVTVSS
VL: DIVMTQSPLSLSVTPGEPASISCRSSQSLLHTNGYNYLDWYVQKPGQSPQLLIYLASNRASGVPDRFSGSGSGTDFTLKISRVETEDVGVYYCMQALQIPRTFGQGTKVEIK
B5 displayed an IC50 in assay [4] of 0.06 nM. The IC50 values of the last two molecules are within 1.5-fold of each other.

B6: MSL-109 Fab variant H2-D53T (Fab, name in Kabat numbering, V domains shown)
VH: EEQVLESGGGLVKPGGSLRLSCAASGFTFSPYSVFWVRQAPGKGLEWVSSINSTSTYKYYADSVKGRFTISRDNAENSIFLQMNSLRAEDTAVYYCARDRSYYAFSSGSLSDYYYGLDVWGQGTLVTVSS
VL: DIVMTQSPLSLSVTPGEPASISCRSSQSLLHTNGYNYLDWYVQKPGQSPQLLIYLASNRASGVPDRFSGSGSGTDFTLKISRVETEDVGVYYCMQALQIPRTFGQGTKVEIK
For B6, the IC50 in assay [4] was found to be 0.06 nM.

B7: MSL-109 Fab variant H2-D53L (Fab, name in Kabat numbering, V domains shown)
VH: EEQVLESGGGLVKPGGSLRLSCAASGFTFSPYSVFWVRQAPGKGLEWVSSINSLSTYKYYADSVKGRFTISRDNAENSIFLQMNSLRAEDTAVYYCARDRSYYAFSSGSLSDYYYGLDVWGQGTLVTVSS
VL: DIVMTQSPLSLSVTPGEPASISCRSSQSLLHTNGYNYLDWYVQKPGQSPQLLIYLASNRASGVPDRFSGSGSGTDFTLKISRVETEDVGVYYCMQALQIPRTFGQGTKVEIK
For B7, in assay [4], the IC50 amounted to 0.02 nM.

B8: MSL-109 Fab variant H2-D53S (Fab, name in Kabat numbering, V domains shown)
VH: EEQVLESGGGLVKPGGSLRLSCAASGFTFSPYSVFWVRQAPGKGLEWVSSINSSSTYKYYADSVKGRFTISRDNAENSIFLQMNSLRAEDTAVYYCARDRSYYAFSSGSLSDYYYGLDVWGQGTLVTVSS
VL: DIVMTQSPLSLSVTPGEPASISCRSSQSLLHTNGYNYLDWYVQKPGQSPQLLIYLASNRASGVPDRFSGSGSGTDFTLKISRVETEDVGVYYCMQALQIPRTFGQGTKVEIK
In assay [4], B8 registered an IC50 of 0.1 nM. This IC50 is about 5-fold higher than that of the molecule before.

B9: MSL-109 Fab variant H2-D53S/T55R (Fab, name in Kabat numbering, V domains shown)
VH: EEQVLESGGGLVKPGGSLRLSCAASGFTFSPYSVFWVRQAPGKGLEWVSSINSSSRYKYYADSVKGRFTISRDNAENSIFLQMNSLRAEDTAVYYCARDRSYYAFSSGSLSDYYYGLDVWGQGTLVTVSS
VL: DIVMTQSPLSLSVTPGEPASISCRSSQSLLHTNGYNYLDWYVQKPGQSPQLLIYLASNRASGVPDRFSGSGSGTDFTLKISRVETEDVGVYYCMQALQIPRTFGQGTKVEIK
As for B9, the IC50 in assay [4] was determined as 0.03 nM.

B10: MSL-109 Fab variant H2-D53L/T55R (Fab, name in Kabat numbering, V domains shown)
VH: EEQVLESGGGLVKPGGSLRLSCAASGFTFSPYSVFWVRQAPGKGLEWVSSINSLSRYKYYADSVKGRFTISRDNAENSIFLQMNSLRAEDTAVYYCARDRSYYAFSSGSLSDYYYGLDVWGQGTLVTVSS
VL: DIVMTQSPLSLSVTPGEPASISCRSSQSLLHTNGYNYLDWYVQKPGQSPQLLIYLASNRASGVPDRFSGSGSGTDFTLKISRVETEDVGVYYCMQALQIPRTFGQGTKVEIK
In assay [4], B10 registered an IC50 of 0.02 nM. Compared with the last molecule, the IC50 is about 1.5-fold lower.

B11: MSL-109 Fab variant H2-D53T/T55R (Fab, name in Kabat numbering, V domains shown)
VH: EEQVLESGGGLVKPGGSLRLSCAASGFTFSPYSVFWVRQAPGKGLEWVSSINSTSRYKYYADSVKGRFTISRDNAENSIFLQMNSLRAEDTAVYYCARDRSYYAFSSGSLSDYYYGLDVWGQGTLVTVSS
VL: DIVMTQSPLSLSVTPGEPASISCRSSQSLLHTNGYNYLDWYVQKPGQSPQLLIYLASNRASGVPDRFSGSGSGTDFTLKISRVETEDVGVYYCMQALQIPRTFGQGTKVEIK
In assay [4], B11 registered a 50% inhibitory concentration (IC50) of 0.03 nM.

B12: MSL-109 Fab variant H2-D53F/T55R (Fab, name in Kabat numbering, V domains shown)
VH: EEQVLESGGGLVKPGGSLRLSCAASGFTFSPYSVFWVRQAPGKGLEWVSSINSFSRYKYYADSVKGRFTISRDNAENSIFLQMNSLRAEDTAVYYCARDRSYYAFSSGSLSDYYYGLDVWGQGTLVTVSS
VL: DIVMTQSPLSLSVTPGEPASISCRSSQSLLHTNGYNYLDWYVQKPGQSPQLLIYLASNRASGVPDRFSGSGSGTDFTLKISRVETEDVGVYYCMQALQIPRTFGQGTKVEIK
Regarding B12, the IC50 in assay [4] was 0.01 nM.

B13: MSL-109 Fab variant H2-T55R (Fab, name in Kabat numbering, V domains shown)
VH: EEQVLESGGGLVKPGGSLRLSCAASGFTFSPYSVFWVRQAPGKGLEWVSSINSDSRYKYYADSVKGRFTISRDNAENSIFLQMNSLRAEDTAVYYCARDRSYYAFSSGSLSDYYYGLDVWGQGTLVTVSS
VL: DIVMTQSPLSLSVTPGEPASISCRSSQSLLHTNGYNYLDWYVQKPGQSPQLLIYLASNRASGVPDRFSGSGSGTDFTLKISRVETEDVGVYYCMQALQIPRTFGQGTKVEIK
B13 had an IC50 in assay [4] of 0.17 nM.

B14: MSL-109 Fab variant H2-D53M/T55R (Fab, name in Kabat numbering, V domains shown)
VH: EEQVLESGGGLVKPGGSLRLSCAASGFTFSPYSVFWVRQAPGKGLEWVSSINSMSRYKYYADSVKGRFTISRDNAENSIFLQMNSLRAEDTAVYYCARDRSYYAFSSGSLSDYYYGLDVWGQGTLVTVSS
VL: DIVMTQSPLSLSVTPGEPASISCRSSQSLLHTNGYNYLDWYVQKPGQSPQLLIYLASNRASGVPDRFSGSGSGTDFTLKISRVETEDVGVYYCMQALQIPRTFGQGTKVEIK
B14 had an IC50 in assay [4] of 0.07 nM.

The record behind these values is patent US20150376265A1 (Genentech, published 2015).
